Measured values taken from patent US20070219139A1 (POSCO, published 2007).
Where no end group is shown, it is not given here. [ ]: non-standard residue; d: D form.

T1: formyl peptide receptor (UniProt P21462 1-350, limits assumed)
T1 sequence (looked up): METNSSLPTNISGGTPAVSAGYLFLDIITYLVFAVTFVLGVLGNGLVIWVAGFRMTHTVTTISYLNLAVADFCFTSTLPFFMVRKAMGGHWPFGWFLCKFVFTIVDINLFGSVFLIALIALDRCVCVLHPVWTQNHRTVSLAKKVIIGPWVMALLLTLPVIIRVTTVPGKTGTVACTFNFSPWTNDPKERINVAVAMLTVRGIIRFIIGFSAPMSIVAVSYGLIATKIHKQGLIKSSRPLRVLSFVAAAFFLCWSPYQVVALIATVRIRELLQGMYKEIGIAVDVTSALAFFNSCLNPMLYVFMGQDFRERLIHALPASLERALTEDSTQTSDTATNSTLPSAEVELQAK

T2: formyl peptide receptor-like 1 (UniProt P25090 1-351, limits assumed)
T2 sequence (looked up): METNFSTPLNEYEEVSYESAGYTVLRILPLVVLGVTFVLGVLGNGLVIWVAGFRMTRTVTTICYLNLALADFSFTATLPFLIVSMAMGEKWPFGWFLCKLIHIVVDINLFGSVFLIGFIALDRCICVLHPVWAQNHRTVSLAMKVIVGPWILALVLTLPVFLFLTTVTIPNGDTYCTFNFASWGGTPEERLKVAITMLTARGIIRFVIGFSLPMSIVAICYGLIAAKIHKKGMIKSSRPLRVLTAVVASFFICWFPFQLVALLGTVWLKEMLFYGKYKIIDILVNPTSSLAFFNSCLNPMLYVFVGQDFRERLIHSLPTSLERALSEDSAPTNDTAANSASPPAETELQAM

B1: Trp-Lys-Glu-Met-Val-D-Met-NH2 (peptide)
peptide: WKEMV[dM]-NH2
modifications: N-terminus assumed
SMILES: CSCC[C@H](NC(=O)[C@H](CCC(=O)O)NC(=O)[C@H](CCCCN)NC(=O)[C@@H](N)Cc1c[nH]c2ccccc12)C(=O)N[C@H](C(=O)N[C@H](CCSC)C(N)=O)C(C)C
B2: Trp-His-Tyr-Met-Val-D-Met-NH2 (peptide)
peptide: WHYMV[dM]-NH2
modifications: N-terminus assumed
SMILES: CSCC[C@H](NC(=O)[C@H](Cc1ccc(O)cc1)NC(=O)[C@H](Cc1c[nH]cn1)NC(=O)[C@@H](N)Cc1c[nH]c2ccccc12)C(=O)N[C@H](C(=O)N[C@H](CCSC)C(N)=O)C(C)C
B3: Trp-Lys-His-Met-Val-D-Met-NH2 (peptide)
peptide: WKHMV[dM]-NH2
modifications: N-terminus assumed
SMILES: CSCC[C@H](NC(=O)[C@H](Cc1c[nH]cn1)NC(=O)[C@H](CCCCN)NC(=O)[C@@H](N)Cc1c[nH]c2ccccc12)C(=O)N[C@H](C(=O)N[C@H](CCSC)C(N)=O)C(C)C
B4: Trp-Glu-Tyr-Met-Val-D-Met-NH2 (peptide)
peptide: WEYMV[dM]-NH2
modifications: N-terminus assumed
SMILES: CSCC[C@H](NC(=O)[C@H](Cc1ccc(O)cc1)NC(=O)[C@H](CCC(=O)O)NC(=O)[C@@H](N)Cc1c[nH]c2ccccc12)C(=O)N[C@H](C(=O)N[C@H](CCSC)C(N)=O)C(C)C
B5: Trp-Lys-Tyr-Met-Tyr-D-Met-NH2 (peptide)
peptide: WKYMY[dM]-NH2
modifications: N-terminus assumed
SMILES: CSCC[C@H](NC(=O)[C@H](Cc1ccc(O)cc1)NC(=O)[C@H](CCCCN)NC(=O)[C@@H](N)Cc1c[nH]c2ccccc12)C(=O)N[C@@H](Cc1ccc(O)cc1)C(=O)N[C@H](CCSC)C(N)=O
B6: Trp-Asp-Tyr-Met-Val-D-Met-NH2 (peptide)
peptide: WDYMV[dM]-NH2
modifications: N-terminus assumed
SMILES: CSCC[C@H](NC(=O)[C@H](Cc1ccc(O)cc1)NC(=O)[C@H](CC(=O)O)NC(=O)[C@@H](N)Cc1c[nH]c2ccccc12)C(=O)N[C@H](C(=O)N[C@H](CCSC)C(N)=O)C(C)C
B7: Trp-Lys-Trp-Met-Val-D-Met-NH2 (peptide)
peptide: WKWMV[dM]-NH2
modifications: N-terminus assumed
SMILES: CSCC[C@H](NC(=O)[C@H](Cc1c[nH]c2ccccc12)NC(=O)[C@H](CCCCN)NC(=O)[C@@H](N)Cc1c[nH]c2ccccc12)C(=O)N[C@H](C(=O)N[C@H](CCSC)C(N)=O)C(C)C
B8: Trp-Arg-Tyr-Met-Val-D-Met-NH2 (peptide)
peptide: WRYMV[dM]-NH2
modifications: N-terminus assumed
SMILES: CSCC[C@H](NC(=O)[C@H](Cc1ccc(O)cc1)NC(=O)[C@H](CCCNC(=N)N)NC(=O)[C@@H](N)Cc1c[nH]c2ccccc12)C(=O)N[C@H](C(=O)N[C@H](CCSC)C(N)=O)C(C)C
B9: Trp-Lys-Asp-Met-Val-D-Met-NH2 (peptide)
peptide: WKDMV[dM]-NH2
modifications: N-terminus assumed
SMILES: CSCC[C@H](NC(=O)[C@H](CC(=O)O)NC(=O)[C@H](CCCCN)NC(=O)[C@@H](N)Cc1c[nH]c2ccccc12)C(=O)N[C@H](C(=O)N[C@H](CCSC)C(N)=O)C(C)C
B10: Trp-Lys-Phe-Met-Val-D-Met-NH2 (peptide)
peptide: WKFMV[dM]-NH2
modifications: N-terminus assumed
SMILES: CSCC[C@H](NC(=O)[C@H](Cc1ccccc1)NC(=O)[C@H](CCCCN)NC(=O)[C@@H](N)Cc1c[nH]c2ccccc12)C(=O)N[C@H](C(=O)N[C@H](CCSC)C(N)=O)C(C)C
B11: Trp-Lys-Tyr-Met-Gly-D-Met-NH2 (peptide)
peptide: WKYMG[dM]-NH2
modifications: N-terminus assumed
SMILES: CSCC[C@H](NC(=O)[C@H](Cc1ccc(O)cc1)NC(=O)[C@H](CCCCN)NC(=O)[C@@H](N)Cc1c[nH]c2ccccc12)C(=O)NCC(=O)N[C@H](CCSC)C(N)=O
B12: Met-Val-D-Met-NH2 (peptide)
peptide: Met-Val-[dM]-NH2
modifications: N-terminus assumed
SMILES: CSCC[C@H](N)C(=O)N[C@H](C(=O)N[C@H](CCSC)C(N)=O)C(C)C
B13: Trp-Lys-Arg-Met-Val-D-Met-NH2 (peptide)
peptide: WKRMV[dM]-NH2
modifications: N-terminus assumed
SMILES: CSCC[C@H](NC(=O)[C@H](CCCNC(=N)N)NC(=O)[C@H](CCCCN)NC(=O)[C@@H](N)Cc1c[nH]c2ccccc12)C(=O)N[C@H](C(=O)N[C@H](CCSC)C(N)=O)C(C)C
B14: Trp-Lys-Gly-Met-Val-D-Met-NH2 (peptide)
peptide: WKGMV[dM]-NH2
modifications: N-terminus assumed
SMILES: CSCC[C@H](NC(=O)CNC(=O)[C@H](CCCCN)NC(=O)[C@@H](N)Cc1c[nH]c2ccccc12)C(=O)N[C@H](C(=O)N[C@H](CCSC)C(N)=O)C(C)C

Each binder was assayed against T1, formyl peptide receptor (assay: cell-based or functional assay).
In the case of B1, the “EC50 of intracellular calcium increase in FPR-expressing RBL-2H3 cells (fura-2)” value is reported as 1330 nM.
B2 was tested, and the “EC50 of intracellular calcium increase in FPR-expressing RBL-2H3 cells (fura-2)” value was 31.7 nM.
With B3 the “EC50 of intracellular calcium increase in FPR-expressing RBL-2H3 cells (fura-2)” value was 280 nM.
With B4 the “EC50 of intracellular calcium increase in FPR-expressing RBL-2H3 cells (fura-2)” value was 317 nM.
For B5, the “EC50 of intracellular calcium increase in FPR-expressing RBL-2H3 cells (fura-2)” value was 665 nM.
B6 was tested, and the “EC50 of intracellular calcium increase in FPR-expressing RBL-2H3 cells (fura-2)” value was 98.9 nM.
In the case of B7, the “EC50 of intracellular calcium increase in FPR-expressing RBL-2H3 cells (fura-2)” value is reported as 18.8 nM.
B8 was tested, and the “EC50 of intracellular calcium increase in FPR-expressing RBL-2H3 cells (fura-2)” value was 54.9 nM.
For YMV[dM]-NH2 [Tyr-Met-Val-D-Met-NH2], the “EC50 of intracellular calcium increase in FPR-expressing RBL-2H3 cells (fura-2)” value was 569 nM.
B9 was tested, and the “EC50 of intracellular calcium increase in FPR-expressing RBL-2H3 cells (fura-2)” value was 1330 nM.
For B10, the “EC50 of intracellular calcium increase in FPR-expressing RBL-2H3 cells (fura-2)” value was 17.7 nM.

What follows are binders tested against T2, formyl peptide receptor-like 1 (assay: cell-based or functional assay).
In the case of WKYMV-NH2 [Trp-Lys-Tyr-Met-Val-NH2], the “EC50 of intracellular calcium increase in FPRL1-expressing RBL-2H3 cells (fura-2)” value is reported as 918 nM.
With B1 the “EC50 of intracellular calcium increase in FPRL1-expressing RBL-2H3 cells (fura-2)” value was 28.3 nM.
In the case of WKYMVV-NH2 [Trp-Lys-Tyr-Met-Val-Val-NH2], the “EC50 of intracellular calcium increase in FPRL1-expressing RBL-2H3 cells (fura-2)” value is reported as 1260 nM.
In the case of B2, the “EC50 of intracellular calcium increase in FPRL1-expressing RBL-2H3 cells (fura-2)” value is reported as 0.72 nM.
B3 was tested, and the “EC50 of intracellular calcium increase in FPRL1-expressing RBL-2H3 cells (fura-2)” value was 1.94 nM.
For B4, the “EC50 of intracellular calcium increase in FPRL1-expressing RBL-2H3 cells (fura-2)” value was 5.23 nM.
In the case of B5, the “EC50 of intracellular calcium increase in FPRL1-expressing RBL-2H3 cells (fura-2)” value is reported as 0.29 nM.
B11 was tested, and the “EC50 of intracellular calcium increase in FPRL1-expressing RBL-2H3 cells (fura-2)” value was 18.1 nM.
B6 was tested, and the “EC50 of intracellular calcium increase in FPRL1-expressing RBL-2H3 cells (fura-2)” value was 14.3 nM.
With B7 the “EC50 of intracellular calcium increase in FPRL1-expressing RBL-2H3 cells (fura-2)” value was 0.16 nM.
With B8 the “EC50 of intracellular calcium increase in FPRL1-expressing RBL-2H3 cells (fura-2)” value was 0.12 nM.
WKYMVW-NH2 [Trp-Lys-Tyr-Met-Val-Trp-NH2] was tested, and the “EC50 of intracellular calcium increase in FPRL1-expressing RBL-2H3 cells (fura-2)” value was 194 nM.
For B12, the “EC50 of intracellular calcium increase in FPRL1-expressing RBL-2H3 cells (fura-2)” value was greater than 30000 nM.
With YMV[dM]-NH2 [Tyr-Met-Val-D-Met-NH2] the “EC50 of intracellular calcium increase in FPRL1-expressing RBL-2H3 cells (fura-2)” value was 17.1 nM.
KYMV-NH2 [Lys-Tyr-Met-Val-NH2] was tested, and the “EC50 of intracellular calcium increase in FPRL1-expressing RBL-2H3 cells (fura-2)” value was greater than 30000 nM.
In the case of WKYMVG-NH2 [Trp-Lys-Tyr-Met-Val-Gly-NH2], the “EC50 of intracellular calcium increase in FPRL1-expressing RBL-2H3 cells (fura-2)” value is reported as 5950 nM.
For B9, the “EC50 of intracellular calcium increase in FPRL1-expressing RBL-2H3 cells (fura-2)” value was 8.73 nM.
With B13 the “EC50 of intracellular calcium increase in FPRL1-expressing RBL-2H3 cells (fura-2)” value was 2.06 nM.
For WKYMVE-NH2 [Trp-Lys-Tyr-Met-Val-Glu-NH2], the “EC50 of intracellular calcium increase in FPRL1-expressing RBL-2H3 cells (fura-2)” value was 503 nM.
WKYMVR-NH2 [Trp-Lys-Tyr-Met-Val-Arg-NH2] was tested, and the “EC50 of intracellular calcium increase in FPRL1-expressing RBL-2H3 cells (fura-2)” value was 178 nM.
In the case of B14, the “EC50 of intracellular calcium increase in FPRL1-expressing RBL-2H3 cells (fura-2)” value is reported as 21.3 nM.
With B10 the “EC50 of intracellular calcium increase in FPRL1-expressing RBL-2H3 cells (fura-2)” value was 0.23 nM.

Molecular target: T1, formyl peptide receptor
Test: cell-based or functional assay
Remark: another data set of the same source
In the case of WKYMVV-NH2 [Trp-Lys-Tyr-Met-Val-Val-NH2], the “[Ca^2+]i increase in FPR-expressing RBL-2H3 cells” value (from here on “[Ca^2+]i increase”) is reported as greater than 20 µM.
For B11, the “[Ca^2+]i increase” value was greater than 20 µM.
With WKYMVW-NH2 [Trp-Lys-Tyr-Met-Val-Trp-NH2] the “[Ca^2+]i increase” value was greater than 20 µM.
WKYMVG-NH2 [Trp-Lys-Tyr-Met-Val-Gly-NH2] was tested, and the “[Ca^2+]i increase” value was greater than 20 µM.
For WKYMVE-NH2 [Trp-Lys-Tyr-Met-Val-Glu-NH2], the “[Ca^2+]i increase” value was greater than 20 µM.
With WKYMVR-NH2 [Trp-Lys-Tyr-Met-Val-Arg-NH2] the “[Ca^2+]i increase” value was greater than 20 µM.
For B14, the “[Ca^2+]i increase” value was greater than 20 µM.
